Among the data in patent CN109678963A (UNIV CHINA PHARMA, dated 2019) are Kd, koff and kon values, retold here.

The Kd is the constant that tells how readily two partners part at equilibrium. The koff is the rate constant with which the complex falls apart. By kon is commonly meant the rate constant with which the complex forms.

Test [1] deals with T1, CD24裸肽 (CD24 naked peptide) (human, UniProt P25063 27-59, limits assumed).
T1 construct: also called 抗原CD24
T1 peptide (looked up): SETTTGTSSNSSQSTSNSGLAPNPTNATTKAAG
The test is described as follows: SPR, Biacore X100; antibody captured by anti-human IgG(Fc) on a CM5 chip, CD24 naked peptide as analyte (100-0.39 nM), 25 C.

Test [2] addresses T2, 重组人rNKG2D分子 (recombinant human NKG2D) (human, UniProt P26718 78-216, limits assumed).
T2 construct: Used as SPR analyte; source and construct are not described
T2 sequence (looked up): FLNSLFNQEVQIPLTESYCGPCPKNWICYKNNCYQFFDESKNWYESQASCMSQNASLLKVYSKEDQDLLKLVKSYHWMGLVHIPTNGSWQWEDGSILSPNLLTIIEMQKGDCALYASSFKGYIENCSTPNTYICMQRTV
The test is described as follows: SPR, Biacore X100; cG7-MICA captured by anti-human IgG(Fc) on a CM5 chip, recombinant human rNKG2D as analyte (100-6.25 nM). For orientation: SPR reads the build-up and loss of mass on a sensor chip optically.

B1: 靶向CD24的双特异性抗体cG7-MICA (anti-CD24 humanized chimeric antibody cG7 fused at the heavy chain C-terminus to the human MICA extracellular domains 1-3) (bispecific antibody)
heavy: not shown
light: DIVMTQTPLSLSVTIGQPASISCKSSQSLLHSDGKTYLNWLLQRPGQSPKRLIYLVSKLDSGVPDRFTGSGSGTDFTLKVSRVEAEDLGVYYCWQGAHFPYTFGGGTKLEIKVDTVAAPSVFIFPPSDEQLKSGTASVVCLLNNFYPREAKVQWKVDNALQSGNSQESVTEQDSKDSTYSLSSTLTLSKADYEKHKVYACEVTHQGLSSPVTKSFNRGEC
notes: Expressed in CHO-s, purified on Protein A, about 210 kD
As to B1, in test [1], the Kd stood at 0.242 nM, the koff was 0.000339 s⁻¹ and the association rate constant (kon) turned out to be 1.4e+06 M⁻¹ s⁻¹. In addition, in test [2], the Kd was 576 nM, the koff was 0.0015 s⁻¹ and the kon was 2620 M⁻¹ s⁻¹.

B2: 抗CD24人源化嵌合抗体cG7 (antibody, V domains shown)
VH: QVKLEESGGGLVQPGGSLKISCAASGFDFSRYWMSWVRQAPGKGLEWIGEINPDSSTINYTPSLRDKFIISRDNAKNTLYLQMSKVRYEDTSLYYCARQGDYWGQGTSVTVSS
VL: not shown
In test [1], B2 showed a Kd of 0.191 nM, a koff of 0.000336 s⁻¹ and a kon of 1.76e+06 M⁻¹ s⁻¹.
